Experiment: soluble on expression in E. coli; label from the status in PepcDB or PDB records
For “MTQAEIKLCSLLLQEHFGEIVEKIGVHLIRTGSQPLRVIAHDTGTSLDQVKKALCVLVQHNLVSYQVHKRGVVEYEAQCSRVLRMLRYPRYIYTTKTLYSDTGELIVEELLLNGKLTMSAVVKKVADRLTETMEDGKTMDYAEVSNTFVRLADTHFVQRCPSVPTTENSDPGPPPPAPTLVINEKDMYLVPKLSLIGKGKRRRSSDEDAAGEPKAKRPKYTTDNKEPIPDDGIYWQANLDRFHQHFRDQAIVSAVANRMDQTSSEIVRTMLRMSEITTSSSAPFTQPLSSNEIFRSLPVGYNISKQVLDQYLTLLADDPLEFVGKSGDSGGGMYVINLHKALASLATATLKSVVQERFGSRCARIFRLVLQKKHIEQKQVEDFAMIPAKEAKDMLYKMLSENFMSLQVGCQ”, the “soluble on expression in E. coli” value was “not soluble”. For “SHMTPDIILQRTGIDVRAVEQGDDAWHKLRLGVITASEVHNVIAKPRSGKKWPDMKMSYFHTLLAEVCTGVAPEVNAKALAWGKQYENDARTLFEFTSGVNVTESPIIYRDESMRTACSPDGLCSDGNGLELKCPFTSRDFMKFRLGGFEAIKSAYMAQVQYSMWVTRKNAWYFANYDPRMKREGLHYVVIERDEKYMASFDEIVPEFIEKMDEALAEIGFVFGEQWR”, the “soluble on expression in E. coli” value was “soluble”. With “MNILLCCAAGMSSSLIVTKMEKAAEARGIEVKIWAVSGSEVNSHIDEADVLLLGPQVRYLLPKMKELCKGKGVPVDVIQSVHYGLCNGEAILQAALSMKP” the “soluble on expression in E. coli” value was “not soluble”. In the case of “MGSDKIHHHHHHMFDVAARSGSFKQASQELGVTQSAVTRQIQTLEEQLEVRLFQRDNRVHSLTPVGLELAPQIEQIFEQLERTIERTRNLSDNTTTQLTVAISSERLRFWLAAKLADFHSLYPHIQLSFSRCNEYFINESAAEMASAIQHQSWDLAIGYGKVTDKHIQSIVLQKNQMLPVSAIKTNNSPFQLPWLINPENPDHQAMLKTYSQQLKSTRIIHCNDVQMSLDLSSAEQAVALIDSSLITPGLSNLKVYNDSAQPCQYPLSIYYRKRQRQPVALVAFIKWLQMIIS”, the “soluble on expression in E. coli” value was “not soluble”. In the case of “MNKFSLFFALTATLMTITESAVPTASISAHVLDISGGSPAGGVQILAYIQQNDDWTKIGSEFTQDNGRVDWVSPDFTLIPGTYRLVYITEPYYKAKNVESFYPYVEVVFNIRDATQHYHVPLTLSPWGYSTYRGS”, the “soluble on expression in E. coli” value was “not soluble”. With “MGSDKIHHHHHHGGEDYVQAEQAPMLKIPEGLKTPPYNKEYDVPALGPKANPALVGKNLDIRPPLQVLPMAEGTHVEEGSDNIKIVVESIDNNVDLKQEIFTNLDDFFAKQAIPIRSRDFDKGSIETDWIESREVLESSLWGSDKEYLLRQRYRFDVETRPHGRTANIVIHLVEHEEFYDGKEQKVMLSGEDKQRYTIDMLNSAIAYMSVKREQTIQANRLKQTLGINVDLITPEEGAAYWSAKAAYKQVWDRLRIVLPEMGFEISDMDSAKGLYFIKFTDNSGFWSSLWNNNQLSLKEGSYRLLLEDGDTPDETKIWLRDAEDQPLSNDVVSKVYESLSSLMKEERKLR” the “soluble on expression in E. coli” value was “not soluble”. In the case of “MVDIIIAEHAGFCFGVKRAVKLAEESLKESQGKVYTLGPIIHNPQEVNRLKNLGVFPSQGEEFKEGDTVIIRSHGIPPEKEEALRKKGLKVIDATCPYVKAVHEAVCQLTREGYFVVLVGEKNHPEVIGTLGYLRACNGKGIVVETLEDIGEALKHERVGIVAQTTQNEEFFKEVVGEIALWVKEVKVINTICNATSLRQESVKKLAPEVDVMIIIGGKNSGNTRRLYYISKELNPNTYHIETAEELQPEWFRGVKRVGISAGASTPDWIIEQVKSRIQEICEGQLVSSRSHHHHHH”, the “soluble on expression in E. coli” value was “soluble”. With “MATGQDRVVALVDMDCFFVQVEQRQNPHLRNKPCAVVQYKSWKGGGIIAVSYEARAFGVTRSMWADDAKKLCPDLLLAQVRESRGKANLTKYREASVEVMEIMSRFAVIERASIDEAYVDLTSAVQERLQKLQGQPISADLLPSTYIEGLPQGPTTAEETVQKEGMRKQGLFQWLDSLQIDNLTSPDLQLTVGAVIVEEMRAAIERETGFQCSAGISHNKVLAKLACGLNKPNRQTLVSHGSVPQLFSQMPIRKIRSLGGKLGASVIEILGIEYMGELTQFTESQLQSHFGEKNGSWLYAMCRGIEHDPVKPRQLPKTIGCSKNFPGKTALATREQVQWWLLQLAQELEERLTKDRNDNDRVATQLVVSIRVQGDKRLSSLRRCCALTRYDAHKMSHDAFTVIKNCNTSGIQTEWSPPLTMLFLCATKFSASAPSSSTDITSFLSSDPSSLPKVPVTSSEAKTQGSGPAVTATKKATTSLESFFQKAAERQKVKEASLSSLTAPTQAPMSNSPSKPSLPFQTSQSTGTEPFFKQKSLLLKQKQLNNSSVSSPQQNPWSNCKALPNSLPTEYPGCVPVCEGVSKLEESSKATPAEMDLAHNSQSMHASSASKSVLEVTQKATPNPSLLAAEDQVPCEKCGSLVPVWDMPEHMDYHFALELQKSFLQPHSSNPQVVSAVSHQGKRNPKSPLACTNKRPRPEGMQTLESFFKPLTH” the “soluble on expression in E. coli” value was “soluble”. For “AGRTGRLHLAIECHSCFQWLMPALDAFRGQWPDVALDLSAAFSFAPLPALVRGDLDLVITSDPQALEAVTYLPLFKYELVLAVAESNPLAANRHVMPEQLADQTLITYPVDRQRLDIFTGF”, the “soluble on expression in E. coli” value was “not soluble”. For “KVVAKGLGLSKAYVGQKSSFTVDCSKAGNNMLLVGVHGPRTPCEEILVKHVGSRLYSVSYLLKDKGEYTLVVKWGHEHIPGSPYRVVVP”, the “soluble on expression in E. coli” value was “soluble”. For “LTYLNYYGKEKPELVYTKIAQSSQQDAFNISKRSQKEMDKQKTWAMVLNQDGQIVQSYRLPQQLKRHYTNADMVKFSRWYLDDYPVFSYVRGQQILVFGYPKKYSLAKFNFYLNTQFIK”, the “soluble on expression in E. coli” value was “not soluble”. For “MAHHHHHHMHPYLFICKEGNNNNGSTTNLKSGMSLSDRRHTPLGRNLSESTELSQSLSSRSGGSSPIPRPNLDDITRRLLEENEGMLFEINKLTRELTDERAKVSGLHETLAERSAELELMKEKLSDATVVATDDTGKPINYKRECDGLAADNNRLVKEYERVCTELEKRTEEIRREMGDQRDEAEGKTISVQVEQFNREITALVPTVEHIVNSLKRCVVTGGIAEERILENAQKELHTMRRITDTVRRMNAGDETCVKGLLTQIQKGEQLTAPGDVAVVIRWMVVRAFEAGLQSAEGNLRTLVDILNNSKGRYTSENATTGSGEVPASGISVRQMFRLLKM”, the “soluble on expression in E. coli” value was “not soluble”. With “MGSDKIHHHHHHMERLPTTPHDAVFRQMLMQKEVARDFLAIHMPEDFLAICDLDSLKLESGSFVEDNLRSRYSDILYSLHTQHGPGYVYALIEHQSKSDRLMAFRLMRYAIAAMQRHLDAGHDTLPLVVPILFYHGPESPWPYSLNWHNMFVKPDMAKALYSRDFALVDLTTMPDNQLLQHRRIAMLELLQKHIRQRDLSELLDPLITLLTQDHLTDAQLSVLINYMLKAGNAAEPGALIRQLAQGAPQYKEQLMTIAEWLEEKGRTEGLQKGLQKGLEQGLAQGREAEARAIARKMLANGLEPGLIASVTGITPEELSTLSH” the “soluble on expression in E. coli” value was “not soluble”. With “MSGIIATYLIHDDSHNLEKKAEQIALGLTIGSWTHLPHLLQEQLKQHKGNVIHVEELAEHEHTNSYLRKKVKRGIIKIEYPLLNFSPDLPAILTTTFGKLSLDGEVKLIDLTFSDELKKHFPGPKFGIDGIRNLLQVHDRPLLMSIFKGMIGRNIGYLKTQLRDQAIGGVDIVKDDEILFENALTPLTKRIVSGKEVLQSVYETYGHKTLYAVNLTGRTFDLKENAKRAVQAGADILLFNVFAYGLDVLQSLAEDDEIPVPIMAHPAVSGAYSASKLYGVSSPLLLGKLLRYAGADFSLFPSPYGSVALEKEEALAISKYLTEDDASFKKSFSVPSAGIHPGFVPFIVRDFGKDVVINAGGGIHGHPNGAQGGGKAFRTAIDATLQNKPLHEVDDINLHSALQIWGNPSYEVKL” the “soluble on expression in E. coli” value was “soluble”. For “MYFMEILTCIKQVPGTTSVEVDETTGVLKRDGVDSKMNPYDLYALETALRIKEDKKANLKVLSMGPPQAKKVIEESFMMGADEGALISDRRFGGADVLATSYTISQGIKKMGKVDLIICGKQTTDGDTAQVGPEVAEFLDIPHVTNVTKLIEVKDESIVVEIDMPNDLQVCEIEYPCLITVEKDIFQPRLPSFKLKLNTKDREIPVYSLDDFEDKNENNYGLNGSPTQVVRIFPPKPNTDKNIVRGNADELSFALVNKLEELKLV”, the “soluble on expression in E. coli” value was “not soluble”. In the case of “MGSDKIHHHHHHMLNQQWLTTFIKLVEVGHFTHTAEQLFMTQPGVSQHIKKLEQQVGVDLLIRIGKSFELTEAGIVLYQQALVWQQQQQQVLSQLAVDDEHVGDCRLACSGSMALLLYPHLIDYQLPYSQLQIYLEAAPNKRIIDSVMTNTIDVGIITQPINMDELVVTPLAAQSLCLVLPQSYLHQSVTFEQLMELGMVSHPDAMHYWSQIVGQYFTKKQALALQVPIRSYVNQLNQILVPVAKGLAFAVLPQFAVDHFGQQQHIRVASFTTEQANNVVVSEPLFIIYKKHRPLARRYGPIIDKIKQLVK”, the “soluble on expression in E. coli” value was “not soluble”. In the case of “QTPVYLDTSKPIEERVKDALSRMTLEEKVKMTHAQSKFSSPGVPRLGIPEVWATDGPHGIRPEVLWDEWDQAGWTNDSCIAYPALTCLSATWNPEMSYLYGKSIGEEARYRKKDILLGPGVNIYRTPLNGRNFEYMGEDPYLSSMMVVPYIKGVQENGVAACVKHYALNNQEFNRHTTNVHLSDRALYEIYLPAFKAAVQEGGAWAIMGAYNLYSFSEDTDSGKLYKTQHACHNKRLLQDILRKEWGFDGVVVSDWGGVHDTFQAISNGLDMEFGSWTNGLSAGTRNAYDNYYLAHPYLKLIQDGTVGTKELDEKVSNILRLIFRTSMNPH”, the “soluble on expression in E. coli” value was “not soluble”. In the case of “MSSALTDLFPLPIVQAPMAGGVSVPQLAAAVCEAGGLGFLAAGYKTADGMYQEIKRLRGLTGRPFGVNVFMPQPELAESGAVEVYAHQLAGEAAWYETELGDPDGGRDDGYDAKLAVLLDDPVPVVSFHFGVPDREVIARLRRAGTLTLVTATTPEEARAVEAAGADAVIAQGVEAGGHQGTHRDSSEDDGAGIGLLSLLAQVREAVDIPVVAAGGIMRGGQIAAVLAAGADAAQLGTAFLATDESGAPGPHKRALTDPLFARTRLTRAFTGRPARSLVNRFLREHGPYAPAAYPDVHHLTSPLRKAAAKAGDAQGMALWAGQGHRMARELPAGRLVEVLAAELAEARTALSDASRENESRKGHHHHHH”, the “soluble on expression in E. coli” value was “soluble”. For “MSGPNGDLGMPVEAGAEGEEDGFGEAEYAAINSMLDQINSCLDHLEEKNDHLHARLQELLESNRQTRLEFQQQLGEAPSDASP”, the “soluble on expression in E. coli” value was “soluble”. For “MRSSKGGRGRQAAPKTAPTTVCYCDGKRELGSVEVVCSTCLKWFHGRCLKEFHELNSNGVPFMICYTFTCKQCRPTAEDWKAKKADLVQMCVTVLATLSAERLKADGKLSAEHVPEDFTYLSLKDEIVPYMNENWYMLTAIKQKKEWHQNLAPTLLKEKNIFVQHNDDDDLFALAEKNLSLLGPLHEAVKLIGKRPIERENREPRHIELPPIEGPKTRGASKRRHAEAPVTGKKQKLAADYSSTAAPNGVQIDIPFSKDNYRYYLTEVDPNVPEDPAWNQNQSSAYVIPSFHYRELLNPTVNVSSNDRAFQLSINGNSITGFEGYSMARASHGVSKGTWYFEVNFDDQPDDSHIRIGWSQSYASLQACVGYNKFSYGWRSKHGTKFHEAKGKKYHFGGFKQGDVLGCLIHLPVDKKLQIPANLPSEKYLPVSHKGFNLISFKANYFFEVQEESADIAKTLVEMPGSYIEFFHNGKSCGKAYENIYAGAYYPSISIFKSATATMNLGPKFRNLPRGATGIHARADEQQHEQTLSDMLYLVSKEVNLDHPPRVKREDDDDVKDIKKEIKQEI”, the “soluble on expression in E. coli” value was “not soluble”. For “MVGRVAQGKEPLHPGPRRQPGGARPGADLGPGGGVNPSPRKRVALFTDGACLGNPGPGGWAALLRFHAHEKLLSGGEACTTNNRMELKAAIEGLKALKEPCEVDLYTDSHYLKKAFTEGWLEGWRKRGWRTAEGKPVKNRDLWEALLLAMAPHRVRFHFVKGHTGHPENERVDREARRQAQSQAKTPCPPRAPTLFHEEA”, the “soluble on expression in E. coli” value was “soluble”.
